Laboratory results reported in ChEMBL document CHEMBL4007386, “Design, synthesis of allosteric peptide activator for human SIRT1 and its biological evaluation in cellular model of Alzheimer's disease” (Eur J Med Chem, 2017).

Tests used:
Conditions in all cases: Homo sapiens
[1] = compound: N=C(N)NCCC[C@H](NC(=O)[C@H](Cc1c[nH]c2ccccc12)NC(=O)[C@@H](N)CS)C(=O)O; experiment: Allosteric activation of SIRT1 (unknown origin) expressed in bacterial expression system assessed as Vmax for substrate at 80 uM using Fluorophore labeled-Arg-His-Lys-Lys (Ac) as substrate incubated for 30 mins in presence of NAD+ by fluorimetric method (reference value: 1666.67 uM)
[2] = compound: N=C(N)NCCC[C@H](NC(=O)[C@H](Cc1c[nH]c2ccccc12)NC(=O)[C@@H](N)CS)C(=O)O; experiment: Allosteric activation of SIRT1 (unknown origin) expressed in bacterial expression system assessed as apparent Km for substrate at 80 uM using Fluorophore labeled-Arg-His-Lys-Lys (Ac) as substrate incubated for 30 mins in presence of NAD+ by fluorimetric method (reference value: 507 uM)
[3] = compound: N=C(N)NCCC[C@H](NC(=O)[C@H](Cc1c[nH]c2ccccc12)NC(=O)[C@@H](N)CS)C(=O)O; experiment: Allosteric activation of SIRT1 (unknown origin) expressed in bacterial expression system assessed as apparent Km for substrate at 40 uM using Fluorophore labeled-Arg-His-Lys-Lys (Ac) as substrate incubated for 30 mins in presence of NAD+ by fluorimetric method (reference value: 507 uM)
[4] = compound: N=C(N)NCCC[C@H](NC(=O)[C@H](Cc1c[nH]c2ccccc12)NC(=O)[C@@H](N)CS)C(=O)O; experiment: Allosteric activation of SIRT1 (unknown origin) expressed in bacterial expression system assessed as Vmax for substrate at 40 uM using Fluorophore labeled-Arg-His-Lys-Lys (Ac) as substrate incubated for 30 mins in presence of NAD+ by fluorimetric method (reference value: 1666.67 uM)
[5] = compound: N=C(N)NCCC[C@H](NC(=O)[C@H](Cc1c[nH]c2ccccc12)NC(=O)[C@@H](N)CS)C(=O)O; experiment: Allosteric activation of SIRT1 (unknown origin) expressed in bacterial expression system assessed as Vmax for substrate at 120 uM using Fluorophore labeled-Arg-His-Lys-Lys (Ac) as substrate incubated for 30 mins in presence of NAD+ by fluorimetric method (reference value: 1666.67 uM)
[6] = compound: N=C(N)NCCC[C@H](NC(=O)[C@H](Cc1c[nH]c2ccccc12)NC(=O)[C@@H](N)CS)C(=O)O; experiment: Allosteric activation of SIRT1 (unknown origin) expressed in bacterial expression system assessed as apparent Km for substrate at 120 uM using Fluorophore labeled-Arg-His-Lys-Lys (Ac) as substrate incubated for 30 mins in presence of NAD+ by fluorimetric method (reference value: 507 uM)
[7] = compound: N=C(N)NCCC[C@H](NC(=O)[C@H](Cc1c[nH]c2ccccc12)NC(=O)[C@@H](N)CS)C(=O)O; experiment: Allosteric activation of SIRT1 (unknown origin) expressed in bacterial expression system assessed as Vmax for substrate at 160 uM using Fluorophore labeled-Arg-His-Lys-Lys (Ac) as substrate incubated for 30 mins in presence of NAD+ by fluorimetric method (reference value: 1666.67 uM)
[8] = compound: N=C(N)NCCC[C@H](NC(=O)[C@H](Cc1c[nH]c2ccccc12)NC(=O)[C@@H](N)CS)C(=O)O; experiment: Allosteric activation of SIRT1 (unknown origin) expressed in bacterial expression system assessed as apparent Km for substrate at 160 uM using Fluorophore labeled-Arg-His-Lys-Lys (Ac) as substrate incubated for 30 mins in presence of NAD+ by fluorimetric method (reference value: 507 uM)

B1: NAD-dependent protein deacetylase sirtuin-1 (Homo sapiens), Q96EB6 (protein)
chain: MADEAALALQPGGSPSAAGADREAASSPAGEPLRKRPRRDGPGLERSPGEPGGAAPEREVPAAARGCPGAAAAALWREAEAEAAAAGGEQEAQATAAAGEGDNGPGLQGPSREPPLADNLYDEDDDDEGEEEEEAAAAAIGYRDNLLFGDEIITNGFHSCESDEEDRASHASSSDWTPRPRIGPYTFVQQHLMIGTDPRTILKDLLPETIPPPELDDMTLWQIVINILSEPPKRKKRKDINTIEDAVKLLQECKKIIVLTGAGVSVSCGIPDFRSRDGIYARLAVDFPDLPDPQAMFDIEYFRKDPRPFFKFAKEIYPGQFQPSLCHKFIALSDKEGKLLRNYTQNIDTLEQVAGIQRIIQCHGSFATASCLICKYKVDCEAVRGDIFNQVVPRCPRCPADEPLAIMKPEIVFFGENLPEQFHRAMKYDKDEVDLLIVIGSSLKVRPVALIPSSIPHEVPQILINREPLPHLHFDVELLGDCDVIINELCHRLGGEYAKLCCNPVKLSEITEKPPRTQKELAYLSELPPTPLHVSEDSSSPERTSPPDSSVIVTLLDQAAKSNDDLDVSESKGCMEEKPQEVQTSRNVESIAEQMENPDLKNVGSSTGEKNERTSVAGTVRKCWPNRVAKEQISRRLDGNQYLFLPPNRYIFHGAEVYSDSEDDVLSSSSCGSNSDSGTCQSPSLEEPMEDESEIEEFYNGLEDEPDVPERAGGAGFGTDGDDQEAINEAISVKQEVTDMNYPSNKS
Q: With B1 as the protein, how does the Vmax [1] read?
A: Its Vmax is 1250 µM.

Q: What about the Km [2] of the same protein?
A: Its Km is 168 µM.

Q: What about the Km [3] of the same protein?
A: The Km was 236 µM.

Q: What about the Vmax [4] of the same protein?
A: Its Vmax is 1430 µM.

Q: And the Vmax [5]?
A: Its Vmax is 1110 µM.

Q: What about the Km [6] of the same protein?
A: Its Km is 72 µM.

Q: And the Vmax [7]?
A: Its Vmax is 1110 µM.

Q: And the Km [8]?
A: The Km was 75 µM.
